Assay: yeast display, Sf9 membrane polyspecificity reagent, FACS + sequencing; frameworks hold sequencing errors
Method in brief: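 In a synthetic yeast display library (Saccharomyces cerevisiae BJ5465), nanobody expression was induced with galactose for 36–48 hours. FACS gates were set low and high (top ~1%) using anti-HA fluorescence for expression and streptavidin fluorescence for binding of the Sf9 membrane reagent. Each polyreactivity label is drawn from the gate of origin.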

In the case of “QVQLVESGGGLVQAGGSLRLSCAASGSIFDRNAMGWYRQAPGKERELVATITWSGVSTYYADSVKGRFTISRDNAKNTVYLQMKSLKPEDTAVYYCYADYSYRHWYDPGQYGQAMGYWGQGTKVTVSS”, the “polyreactivity (PSR sort gate)” value is reported as “low polyreactivity”.

In the case of “QVQLVESGGGLVQAGGSLRLSCAASGSIFDRNAMGWYRQAPGKERELVSAISRGGRTYYADSVKGRFTISRDNAKNTVYLQMNSLKPEVTAVYYCAAGYPSAWAYTTDDYWGQGTQVTVSS”, the “polyreactivity (PSR sort gate)” value is reported as “low polyreactivity”.

For “QVQLVESGGGLVQAGGSLRLSCAASGSIFDRYVMGWYRPAPGKERELVAAISKSGGNTYYADSVKGRFTISRDYEKNTVYLQMNSLKPEDTAVYYCNARSGRYYLGYGYWGQGTQVTVSS”, the “polyreactivity (PSR sort gate)” value was “high polyreactivity”.

With “QVQLVESGGGLVQAGGSLRLSCAASGSIFDSNAMGWYRQAPGKERELVAAINRSDASTYYADSVKGRFTISRDNAKNTDYLQMTSPQPEGTAVYYCGVEVYVYNVHIYDYWGQGTQVTVSS” the “polyreactivity (PSR sort gate)” value was “low polyreactivity”.

In the case of “QVQLVESGGGLVQAGGSLRLSCAASGSIFDSNAMGWYRQAPGKERELVAAMDDAGATTYYADSVQGRFTISRDNAKNTVYLQMNSLKPEDTAVYYCAAETYTGSLAYYRVYYYWGQGTQVTVSS”, the “polyreactivity (PSR sort gate)” value is reported as “low polyreactivity”.

In the case of “QVQLVESGGGLVQAGGSLRLSCAASGSIFDSNAMGWYRQAPGKERELVATISSVGSTNYADSVKGRFTISRDNAKNTVYLQMNSLKPEDTAVYYCARVVDAQGYYSAASGGYYWGQGTQVTVSS”, the “polyreactivity (PSR sort gate)” value is reported as “low polyreactivity”.

For “QVQLVESGGGLVQAGGSLRLSCAASGSIFDSNTRGWYRQAPGKERELVAAINWSGGRTYYADSVKGRFTISRDNPNNTVYLQMNSLKPEDTAVYYCARPSYYATYYPQPFGYNYWGQGTQVTVSS”, the “polyreactivity (PSR sort gate)” value was “high polyreactivity”.

With “QVQLVESGGGLVQAGGSLRLSCAASGSIFDSYAMGWSRQAPGKERELVAAISSGGSTNYADSVKGRFTISRDNEKNTVILQMYSLKTEDTAVYFCAADGSLDAYNYWGQGTQVSVSS” the “polyreactivity (PSR sort gate)” value was “low polyreactivity”.

With “QVQLVESGGGLVQAGGSLRLSCAASGSIFDSYAMGWYRQAPGKERELVAAISRIGGTTYYADSVKGRFTISRDNAKNTVYLQMNTLKPEDTAVYYCAAGPLLPRYSQYGYWGLGTQVTVSS” the “polyreactivity (PSR sort gate)” value was “low polyreactivity”.

In the case of “QVQLVESGGGLVQAGGSLRLSCAASGSIFDSYAMGWYRQAPGKERELVAAISRSGSRTYYADSVKGRFTISRDNAKNTVYLQMNSLKPEDTAVYYCAAGLSGYSRKIYYWGQGTQVTVSS”, the “polyreactivity (PSR sort gate)” value is reported as “high polyreactivity”.

In the case of “QVQLVESGGGLVQAGGSLRLSCAASGSIFDSYVMGWYRHAPGKERELVAAITYSGGSTYADSVKGRFTISRDNAQNTVDLQMNSLKPEDTAVYYCAAASSFYLYLLEDYWGQGTQVTVSS”, the “polyreactivity (PSR sort gate)” value is reported as “low polyreactivity”.

With “QVQLVESGGGLVQAGGSLRLSCAASGSIFDTNAMGWYRQAPGKERELVAAISFSGVRTYYADSVKGRFTISRDNAKNTVYLLMNSLKPEDTAVYYCNRLRISPGWRYNYWGQGTQVTVSS” the “polyreactivity (PSR sort gate)” value was “high polyreactivity”.

For “QVQLVESGGGLVQAGGSLRLSCAASGSIFDVNAMGWYRPAPGKERELVAAISDSGGSTYYADSVKGRFTISRDNAKNTVYLQMNSLQPQDTAVYSCNADWSWYNYYDFDYWGQGTQVTVSS”, the “polyreactivity (PSR sort gate)” value was “low polyreactivity”.

For “QVQLVESGGGLVQAGGSLRLSCAASGSIFDVNAMGWYRQAPGKEREFVASITWSGGSTYYADSVKGRFTISRDNAKNTVYLQMNSLKPEDTAVYYCAARPVWVSGYLQYVYCGQGTQVTVSS”, the “polyreactivity (PSR sort gate)” value was “low polyreactivity”.

With “QVQLVESGGGLVQAGGSLRLSCAASGSIFDVNAMGWYRQAPGKERELVAAITWSGGITYYADSVKGRFTISRDNAKNTVYLQMNSLKPEDTAVYYCNVYVTAGEEDEYWGQGTQVTVSS” the “polyreactivity (PSR sort gate)” value was “low polyreactivity”.

In the case of “QVQLVESGGGLVQAGGSLRLSCAASGSIFDVYAMGWYRQAPGKERELVAAIRTRGGSTYYADSVKGRFTISRDNAKNTVYLQMNSLKPEDTAVYYCAAYPLVSWGRHGTKGDYWGQGTQVTVSS”, the “polyreactivity (PSR sort gate)” value is reported as “low polyreactivity”.

In the case of “QVQLVESGGGLVQAGGSLRLSCAASGSIFDVYAMGWYRQAPGKERELVAAITGGGSTYYADSVKGRFTISRDNAKNTVYLQMNSLKPEDTAVYYCNADRRRRSGGFAGWHFQRNDYWGQGTQVTVSS”, the “polyreactivity (PSR sort gate)” value is reported as “low polyreactivity”.

In the case of “QVQLVESGGGLVQAGGSLRLSCAASGSIFDVYTMGWYRQAPGKERELVAAISWSGGSTFYADSVKGRFTISRDNAKNTVYLQMNSLKPEDTAVYYCAARSYWRQYGRYGSWGQGTQVTVSS”, the “polyreactivity (PSR sort gate)” value is reported as “high polyreactivity”.

With “QVQLVESGGGLVQAGGSLRLSCAASGSIFDVYTMGWYRQAPGKVRELVAAINTGGGSTYYADSVMGRFTISRDNAKNTVYLEMNSLKPEDTAVYYCAASVYHYGPLYYWGEGTQVTVSS” the “polyreactivity (PSR sort gate)” value was “low polyreactivity”.

With “QVQLVESGGGLVQAGGSLRLSCAASGSIFDWNAMGWYRQAPGKERELVATISWDGGSTYYADSVKGRFTISRDNSKNTVYLQMNSLKPEDTAVYYCATVFTGKPAYYARTKYDYWGQGTQVTVSS” the “polyreactivity (PSR sort gate)” value was “low polyreactivity”.

With “QVQLVESGGGLVQAGGSLRLSCAASGSIFDWYAMGWYRKAPGTERELVAAINEGGGSTYYADSVKGRFTISRDNAKNTVYLQMNSLKPEDTAVYYCAAGDYYLQDNYWGQGTQVTVSS” the “polyreactivity (PSR sort gate)” value was “low polyreactivity”.

For “QVQLVESGGGLVQAGGSLRLSCAASGSIFDYNAMGWYRQAPGKERELVAAITSGTSTNYADSVKGRFTISRDNAKNTVYLQMNSLKPEDTAVYYCAADPVWAYDYWGQGTQVTVSS”, the “polyreactivity (PSR sort gate)” value was “low polyreactivity”.

For “QVQLVESGGGLVQAGGSLRLSCAASGSIFDYNAMGWYRQAPGKERELVAAITYSGGTTYADSVKGRFTISRDNAKNTVYLQMNSLKPEDTAVYYCAATSYARFAYYYWGQGTQVTVSS”, the “polyreactivity (PSR sort gate)” value was “low polyreactivity”.

For “QVQLVESGGGLVQAGGSLRLSCAASGSIFDYYAMGWYRQAPGKERELVAAINISGGDTYYADSVKGRFTISRDNAKNTVYLQMNSLKPEDTAVYYCAADWVTWWFSRVGWDYGYWGQGTQVTVSS”, the “polyreactivity (PSR sort gate)” value was “low polyreactivity”.

With “QVQLVESGGGLVQAGGSLRLSCAASGSIFDYYAMGWYRQAPGKERELVAAISNGRTTNYADSVKGRFTISRDNAKNTVYLQMNSLKPEDTAVYYCNADSALYDKAVIYSEYDYWGQGTQVTVSS” the “polyreactivity (PSR sort gate)” value was “low polyreactivity”.

For “QVQLVESGGGLVQAGGSLRLSCAASGSIFDYYAMGWYRQAPGKERELVAAISSSGDTTYYADSVKGRFTISRDTAKNTVYLQMNSLKPEDTAVYYCAARVRGYRHASNYYWGQGTQVTVSS”, the “polyreactivity (PSR sort gate)” value was “high polyreactivity”.

In the case of “QVQLVESGGGLVQAGGSLRLSCAASGSIFDYYAMGWYRQAPGKERELVAAISTSTSSTYYADSVKGRFTISRDNAKNTVYFQMNSLKPEDTAVYYCAAEGESQPESPGYDYWGQGTQVTVSS”, the “polyreactivity (PSR sort gate)” value is reported as “low polyreactivity”.

In the case of “QVQLVESGGGLVQAGGSLRLSCAASGSIFEENAMGWYRQAPGKERELVAAINTRGGSTYYADSVKGRFTLSRDNAKNTVYLQMNSLKPEDTAVYYCALISRYYYWGQGTQVTVSS”, the “polyreactivity (PSR sort gate)” value is reported as “high polyreactivity”.

With “QVQLVESGGGLVQAGGSLRLSCAASGSIFEENAMGWYRQAPGKERELVAAITIGGRTNYADSVYGRFTISRDNAKNTVYLQMNSLKPEDTAVYYCAADLSSNKYWRFWTRYYYWGQGTQVTVSS” the “polyreactivity (PSR sort gate)” value was “low polyreactivity”.

In the case of “QVQLVESGGGLVQAGGSLRLSCAASGSIFEEYAMGWYRQAPGKERELVARIDESGGSTYYADSVKGRFTISRDNAKNTVYLQMHSLKPEDSAVYYCAAVVTAQAYAYFTYGYDYWGQGTQVTVSS”, the “polyreactivity (PSR sort gate)” value is reported as “low polyreactivity”.

For “QVQLVESGGGLVQAGGSLRLSCAASGSIFEEYAMGWYRQAPGKERELVARIDESGGSTYYADSVKGRFTISRDTAKNTVYLQMNSLKPEDTAVYYCAAERYSDSWGYYSVDEGSWEMDYWGQGTQVTVSS”, the “polyreactivity (PSR sort gate)” value was “low polyreactivity”.

From the nanobody polyreactivity screen of Harvey et al. (2022)
